Measurements as given in publication PMC10235760 (Frontiers in Immunology, 2023).

Target: T1, SARS-CoV-2 receptor binding domain, omicron subvariant BA5 (RBDBA5) (SARS-CoV-2, Omicron BA.5, strain)
T1 construct: also called Omicron BA5 RBD
Experiment: SPR; Biacore T200, […]; 25°C, HBS-EP+ ([…], pH 7.4); 1:1 binding model; triplicate
Conditions: both partners purified

B1: antibody 10-40 with triple mutations (S32H heavy, R100bI heavy, Q53F light) (antibody, V domains shown)
VH: QLQLQESGPGLVKPSETLSLTCTVSGGSISSHNFYWGWIRQPPGKGLEWIASITYSGRTFYNPSLKSRVAISVDTSKNQFSLKLSSVTAADTAVYYCARTFPSYYDISGYHYLNYGMDVWGQGTTVTVSS
VL: NFMLTQPHSMSESPGKTVTISCTRSSGSIASNYVQWYQQRPGSSPTTVIYEDNFRPSGVPDRFSGSIDSSSNSASLTISGLKTEDEADYYCQSYDSSSWVFGGGTKLTVL
notes: also called combination of S32HH, R100bIH, and Q53FL
fold improvement of binding affinity over antibody 10-40: > 5000 fold
